Assay: soluble on expression in E. coli; label from the status in PepcDB or PDB records

Sequence	soluble on expression in E. coli
MGSDKIHHHHHHMSRVACAYIIRKATGEHECCETLEEHVQRSLEVWLGRLKKCYSSAVNRIIYSQGSQTLASVLGDPVAVAIVLHDIGKAVPAYQKKRIMRGRVQYRHELVSGALSLLAIEKAADMAGIGRNDRGLYVFEVPLAVMMHHESISMGVLAGELGERFVTLSVASLMLEDYYDGELWGLERLARTVKNMGAVGDAVVDVLKILSGSPPSRKEVLIALGRLKAYSLSGDTLSRLSARARVAGILHPLVVADSIAANEGRKRCNGDGGTWIVKRALGRDSQEPAEPCLS	not soluble
MGSDKIHHHHHHMSSGTENDQFYSFDESDSSSIELYESHNTSEFTIHGLVFPKLISVTSQDSEFDINEDEDGVDTIYEGMLDAPLTKNNKRILCEGSVPNLSYECLTTKGIFERMLQRVDHLQPIFAIPSADILILLQHYDWNEERLLEVWTEKMDELLVELGLSTTANIKKDNDYNSHFREVEFKNDFTCIICCDKKDTETFALECGHEYCINCYRHYIKDKLHEGNIITCMDCSLALKNEDIDKVMGHPSSSKLMDSSIKSFVQKHNRNYKWCPFADCKSIVHLRDTSSLPEYTRLHYSPFVKCNSFHRFCFNCGFEVHSPADCKITTAWVKKARKESEILNWVLSHTKECPKCSVNIEKNGGCNHMVCSSCKYEFCWICEGPWAPHGKNFFQCTMYKNNEDNKSKNPQDANKTLKKYTFYYRLFNEHEVSAKLDWNLGQTLGTKVHALQERIGISWIDGQFLSESLKVLNEGRTVLKWSFAVAYYSDASHNLTKIFVDNQMLLANAVESLSELLQIKTPEVIMKRRPEFYNKAGYVENRTTALMECGRELLCKGICKAAE	not soluble
MGSDKIHHHHHHMSSLATLAQPLADGTFQCLACQWRCTLAPGEIGRCHMRIGREEGIELINHGMISGAAIGPVEDHRLWHFFPDTTVLAIGGWGYALPIDQQRGPYGTLPTEPAKQRRLEPQRAADFALERLCRGVVWAFGEPAVNFEYVLALLQLSRAASRYTAIVTSGMLSLEALNELGPYLNGISLDLRGFSDNAYQRLGGISDWRHILRFAEEAQQRWKCHIEITTRIHHGVNDHPDELRDLVEWIKKTLGEETPWHVLPGDAGSETAAATKQARRIGHEGGLQFIYGHEPNQPTRCPSCHATLINRQHGVSRRVGLDGNRCSNCGYATNLYLSIFKVHRT	not soluble
MGSDKIHHHHHHMSSNQIAIKVTNLSKCYQIYSQPWDRLKQFFAPKIKSVIRRESRSYFKEFWALRDVSFSINRGETVGIIGRNGAGKSTLLQMICGTLTPTVGDIEVNGRVAALLELGAGFNPEFSGRDNVYLNGSVLGLSKSEIDKKFQEILDFADIGDFIDQPVKTYSSGMYVRLAFAVQACIDPEILIVDEALAVGDIGFQYKCFKRMEMLKQKGTTIIMVTHSTGSILEYADRCLVMSDGMLVGNTTDVLAAVLAYEKGMLMTERTDTAEKKEAVSQTGEIASADELSAIQNTQTNAEVDEKRFGSGRAIIEDFSIMKADGTPLSEKPLVKPNEEIYFSFKLNSSENINDVVLGVSLSRTQGGDIWGDNNIFAGHKIDLAPGLRKLKYKVKLPINTGDYLVHCGLACFNNGEREELDQRRPIAKVKFWSSRELGGVIHSPVNVIEGDELS	not soluble
MGSDKIHHHHHHMSTDNYYIRRRLLSSLTAHLDQPEITVLVGPRQSGKTTILKRLESELRAGGRKTLWLNLDFEDDFRHVASEGALLQKIQLELGSGGGVVFIDEIQRRENAGLFLKGLYDQGLPWKFVVSGSGSIELKEKISESLVGRKRLFELSTVSFGEFADFRTGYRYTDRLRDYFRTEPSKTDQLFREYLMYGGYPRVVLADTHQEKMATINEIFRSYLEKDIVYLLRVEKSESFSNLVRVLATQSGKMVSYSELSATLGLSLATVKLYLWYLEKTYIIDKVTPWYTNIRKEITKAPVYYFRDIGLRNFAAGSFGALSDSEAGFAFQNVIHAMLKERFPLADSTIHYWRTKDKAEVDFVLRSGDTVTPLEVKYRDMKKLDVRRSFLGFLTRYHPEFGYIVNRNYSDEALICQTRVRCLPYWELMFEEAFP	not soluble
MGSDKIHHHHHHMSTEHLLLVSLLKKLKDDALVLPTLPEVAMRVQEVVGRSDASLKQVAEVIGQDAAISARIIKVANSALYSRGVPAESINSAVSRIGLIQIKSIATSVAMEQLFISTNEMVWEVMDEVWRTSIDVTAAACAMLQMYNKRHSTSRLNFDTLTLAGLVHNIGALPVLTEAEAQPHLFTSIDQLRALVRKMQGPLGRAVLKSWDFSTEVMEVVERWADLPYLPDHVTYLDFIRAAAFYTGELRAGTELEQRLGVFVARGLPVTTDDLASDEFMEKFHSIRESYQ	not soluble
MGSDKIHHHHHHMSTLLQHVNLTEFVDVARQLGLDPYRQLRQAGIRPTALVDPEMRVPAKSVMQLLEDSAQLAGLEDLGLRVAEARELTTLGPLWTVMREGATLRNALGAMARYLHLLNEALDLRLEEVGDTAVVRLEFLVSVDGSMRQSTEFIICLWFRLFKLLSGDAWKPRSVCFTHAAPASLATHRRVFGVPVRFHQDFDGILLSAADLDVAGTTSDTALGRHAREFLDTKLAQSDSTMPDKVRKLVFALLPTGECGAEQVARQLGIDRKTMHRHLAAYGQNYLSVVDAVRVELVTRYLKNNERPLSDVAILMGFSSLSAFSRWFATRYGCSVSAWRRQRTAPEIRR	not soluble
MGSDKIHHHHHHMSTNALRGKAAIVGFGDSYCKRGEVKSAMRLAQEATRRALDDAGLNKDEIDGLLTGRAPMSDQRHQWNNIFAAYNKITPRYASEITIHAAGMNSMLKHAALAVTSGVARFVLCVGADAAASQPTVRAQIGGMDADPEFEQPYEPIIPTIYAQMACRLMHEYGMSEEDFSAVAVQCQEWAVHHPYAAKGHKGLVTIDDVMRSPMIASPLRLWHCAPWGPPGTAGAVIVTDADTARSMSDRPIYLLGAGECQTHEYLSDRMALRSSILPLGDLPNITSTGCRVAGDAAFSMAGLRPDDINVVQTASQFAHVELQVLAELGFTDLRAAGEFVRSGATGPQGALPTNTNGGWLSFGQPGVSCVMDSISETIRQLRGEALGLQVQDAHIGLVHGNGGMQACHSVAILGREP	not soluble
MGSDKIHHHHHHMSTTPTTRLILETLLPHLKVAAAYAHFLQPKIAALPAKGEGNNFFSAALTDADVAIQNLVEVVLLGTFPDIRFYGEEYASSNNTKYFRATELGSKGDYLVTLDPIDGTKFYMDGHSNYQIILSILNSDDFEAVIAISPAQNIYFYALRGEGAFKGTLEMSLEACAPLHITSAKPAILLGWAMNSIGHLLKDRYQVIDIAADYSSDIQIPNLNGILTGDLSGAVIKSGKFIDVAALAFIVKEAGWIVTTLDGSTLPPLHTCQNYSLPGLVIATSKSVHQDLLKAVQSLAV	not soluble
MGSDKIHHHHHHMSTVQDASSVGSLFGAEAAKTSKSGSSDTQDRFLSLLVAQMKNQDPLNPLDNAEVTSQMAQLSTVEGIENMNKSLEALASSMGASQMSQAANLIGHAVLVPGNAVGPGQLENLMGFELTRPADKVTLDIHDAGGNLVRSVDLGPRDAGVNVVAWDGLTGSGAVAPAGAYSFKVSAVQGGQAQSSIALNVGLVNSVSQNSEGVQLNLAGNGSVGYADIREIF	not soluble
MGSDKIHHHHHHMSVQISVVAATLNEIDNIEQFIDGVEGVLKGMEFEIIVVDDNSSDGTKEYLARRMNEDTHVVVIENPYRFGMLRSLKLGIEKAGGEIVLVMDADMQHPPSAIPKLISRIVDGCDIVVGSRYVDGGSAGDRDAFRAALSRGAEFLAHALVPSSRMTSDPMSGFFAFRRDLRHDFAYRQTFATADYGAKILLIILAENRHAKVCDVGYVFQSRMRGKSKIVSGTSFLKRYLAELFEVMKLERRYRHMQ	not soluble
MGSDKIHHHHHHMTAATQAKHTPDDLSVAPRDIRFDLTSAQKGHWLGGDPVGTAVFNALSLTFPDGERMFMDAVKAYRDRLSGKLLEDAKGFIAQEAIHSREHHHLNSLIDRERYPVAEIEETIRGRVKMARERGPMAMLISTIALEHFTAMMAEMHARHRNLFDTTDPEIEKLWRWHAVEETEHKAVAYDVFLEVTKDWSPLKRYMIRCRAMVFVTIMFTRNISRYAARLLEADGYTPKAALKAVKRFVWGDPGIFRRGWKTYFAWYRPGFHPWDQDDRPLVADWMAEFNAAAVRV	not soluble
MGSDKIHHHHHHMTAMRGDGGRVLHTGFGVVRGVLFDIDDTLVDLEYAMTTALRDVSEHLLPGLDQAGWEKFGRIFTHETTHFYDRYLAGELTFNEQRLLRGRAALGHFGVELEEGEESHAWVTSYAALQHGYVRAFEDVAPVLDALDAAGIPYGAVSNNVHDYQRVKLDAAGLQRITVLVGTDTLGVPKPDPAIYLEGVRLLGSSAAETLYVGDNRLLDAEGSTAAGLLGVWLNRSGETESAFAGHQVGSLAELLG	not soluble
MGSDKIHHHHHHMTAQSSHMLVLQSTVTSAFKTIASEKQGLEALEEALLGYLSSAFQAAVQTIRNANGHVVITGLGKSGHIGAKIAATLASTGTPAFFVHAAEANHGDLGMIGSDDVILALSWSGETSELSGIINHAARFRTPLIAMTSGEHSVLGRQADIVLLLPKIEEACPHGLAPTTSTIMQLAMGDALAVALLEMRGFTATDFKIYHPGGSLGASLKYVRDIMHQGESIPLVAQGTAMAKAMSVLVEKHFGCVGVVNQEGELIGIVTDGDLARNIHVNLSKFNVDELMTKDPKIVEPNTLVGAATAFINEHHIGAFFVVENKKPIGIVHFHDLLRIGAA	not soluble
MGSDKIHHHHHHMTAQTHNDVAVCWNQNANQWTSDVRNGYDVYRDFFTLPAFLQFLPTMADLNVIDFGCGEGSNTRHFAQMGAKVVGIDISNGLIEHARQAERVDPVGITYKIVSYSSDTGFPASSFDAVVSTMALMDGPDLQGAMHEAYRLLRPGGFVAFSVLHPCFITPGWQWQKDENGQTTGLCTSRYFDKSGFTENWKFGNRPKDENVAPFAVPRFPRTIGDYINAVASVGFRISKIEEPQPTEEACKAIPQLRRWRDLGAFLLLVIAERPK	not soluble
MGSDKIHHHHHHMTDEGALFYEHSRRALSEIQNAAALLDQRKINATGRLRMSVPVLFGQLFAAPLMVKFAQQHADLQLEISFNDRNVDLIEEGFDLCIRIGALPDTTQLVAKPIGEHRMLLCASPDYLNKAGPVEHIEDLDQHATIADPHFGQMQKWRLQKENDEPLFIKPKAKLLLNDLQAIKNAALAGAGIAWLPDWLIQNELQDGKLVQVLDAMSSTAFPIHLVWPTLPFMPLKTRLAIDYLAQHLPPELNK	not soluble
MGSDKIHHHHHHMTDQTRFFDEMTGGAPQARGPYQPYDAWFQGEDLDEIRKKSAEAEGFFRRTGITFNVYGQTEADERLIPFDVVPRIISGREWTRLTRGIEQRVRALNAFLYDIYHRQEILRAGRVPRELIDGNEAFLPQMMGVAPPGGIYTHIVGTDLVRTGEDEFFVLEDNARTPSGVSYMLENRETMLQMFPDLFSRIKVRPVQNYPANLRRSLAACAPNACTGECTVAVLTPGIHNSAYFEHAFLADQMGVELVEGHDLRVKDGRIAMRTTEGYKAIDVLYRRVDDDFLDPLNFNPDSMLGVPGIMDVYRAGGITIANAPGTGISDDKALYSYMPDIIEFYTGEKALLQNVPTHRCSEPEALKYVLDNLAELVVKEVHGSGGYGMLVGPAASKTEIEAFRKKLEANPSNYIAQPTLALSTCPILTEAGLAPRHVDLRPFVLMAPNKTTITPGGLTRVALAEGSLVVNSSQGGGTKDTWVLED	not soluble
MGSDKIHHHHHHMTEQFNINQFNCSISGKGQTLIWAHGSTGCIQSEDAIGLYAWHRFPKKLQLIRYDAVGHGLSSAGKCVEDYLWPELANDMISVATHCKATSELILGGQSMGSATSLYAALKHPGMVKGLILMNPPNAWHSRAAQVDEYHKMAKAARIFGGKGLAKISAKHWDKLLPNWLINGHEHSVLGMLDGLKQMTSQTLDQLFRAAALNDLPNKQLLSGLTMPTLILAWHGDKTHPVETAIELHQTLPNSTLHIADSVDEVNEWPELISEFCFRL	not soluble
